Measurements taken from patent US9592268B2, “Endothelium protective materials and methods of use” (CORNELL UNIVERSITY, priority 2011, dated 2017).

B1: r-apoM-bound S1P: S1P complexed with equi-molar recombinant apoM (protein, UniProt O95445 1-188, looked up)
Apolipoprotein M: MFHQIWAALLYFYGIILNSIYQCPEHSQLTTLGVDGKEFPEVHLGQWYFIAGAAPTKEELATFDPVDNIVFNMAAGSAPMQLHLRATIRMKDGLCVPRKWIYHLTEGSTDLRTEGRPDMKTELFSSSCPGGIMLNETGQGYQRFLLYNRSPHPPEKCVEEFKSLTSCLDSKAFLLTPRNQEACELSNN
modifications: complexed with S1P
B2: r-apoM without S1P: recombinant apoM not complexed with S1P (protein, UniProt O95445 1-188, looked up)
Apolipoprotein M: B1 Apolipoprotein M

What was measured:
HUVEC [1] = assay: adherens junction assembly assay (VE-cadherin immunostaining) in HUVEC; type: cell-based, human; settings: HUVEC stimulated 1 h; HDL 100 μg/ml; S1P complexes or r-apoM 100 nM
Experimental: (§1) FIG. 4. ApoM-bound S1P activates S1P1-mediated intracellular signaling pathways and affects migration of HUVEC. (A) Confocal microscopy of HEK293 cells stably expressing S1P1-GFP. Cells were serum starved, stimulated for 1 h with indicated ligands, fixed and imaged. ApoM^+HDL (equivalent to ˜100 nM S1P as determined by LC/MS/MS) or ApoM^−HDL was used at 100 μg/ml. Fatty acid free BSA and r-apoM were complexed with S1P and used at the final concentration of 100 nM (equimolar for both protein and lipid). Scale bar, 20 μm. […] Activation of p44/42, and Akt was examined by western blot analysis using phospho-specific antibodies. (C) HUVEC were serum starved and pre-treated with 1 μM VPC44116 for 30 min where indicated and subjected to migration assay with 10 μg/ml apoM^+HDL (10 nM S1P) or 10 μg/ml apoM^−HDL or 10 nM albumin-S1P. Data are mean±SD, n=3. * p<0.01. (D) Microscopy of HUVEC that were serum starved and stimulated with 100 μg/ml apoM^+HDL, apoM^−HDL, 100 nM albumin-S1P, r-apoM-S1P or 100 nM S1P-free r-apoM for 1 h. […] Scale bar, 20 μm. HUVEC were serum starved and stimulated for 5 min with 30 nM albumin-S1P, r-apoM-S1P, 10 μg/mL ApoM+ HDL, or 30 nM S1P-free r-apoM (E) or with increasing concentrations of albumin or r-apoM-S1P (F). Activation of p44/42 and Akt was examined by Western blot analysis using phospho-specific antibodies. […]

S1P1 receptor = target: T1, S1P1 receptor (Homo sapiens, UniProt P21453); assay: S1P1 internalization in HEK293 cells stably expressing S1P1-GFP; type: cell-based; settings: stimulated 1 h; HDL 100 μg/ml; S1P complexes 100 nM
T1 construct: expressed in transfected cells
T1 sequence (P21453 whole entry): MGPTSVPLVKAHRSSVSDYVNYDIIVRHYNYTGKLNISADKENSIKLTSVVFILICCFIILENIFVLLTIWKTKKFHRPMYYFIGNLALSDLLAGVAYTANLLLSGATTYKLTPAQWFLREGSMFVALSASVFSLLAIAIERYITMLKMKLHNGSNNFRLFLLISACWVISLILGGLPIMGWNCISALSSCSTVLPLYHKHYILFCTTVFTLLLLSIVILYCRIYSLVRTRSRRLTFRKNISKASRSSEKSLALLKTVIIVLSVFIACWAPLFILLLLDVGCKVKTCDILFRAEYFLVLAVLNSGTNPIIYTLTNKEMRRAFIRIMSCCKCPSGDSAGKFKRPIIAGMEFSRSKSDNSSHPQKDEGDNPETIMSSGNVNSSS
Experimental: as §1, with “(F).” for “(F). Activation of p44/42 and Akt was examined by Western blot analysis using phospho-specific antibodies.”
General Methods. […] Numerical differences were analyzed with two-tailed Student's t test. […]

HUVEC [2] = assay: HUVEC migration (chemotaxis chamber) assay; type: cell-based, human
Experimental: as §1, with “μm.” for “μm. HUVEC were serum starved and stimulated for 5 min with 30 nM albumin-S1P, r-apoM-S1P, 10 μg/mL ApoM+ HDL, or 30 nM S1P-free r-apoM (E) or with increasing concentrations of albumin or r-apoM-S1P (F). Activation of p44/42 and Akt was examined by Western blot analysis using phospho-specific antibodies.”
General Methods. […] Numerical differences were analyzed with two-tailed Student's t test.
Migration Assays. […] The filter was scanned, and the color density of each well was quantified using ImageJ software. […]

VCAM-1 = assay: TNFα-induced cell surface VCAM-1 expression in HUVEC by flow cytometry; type: cell-based, human; settings: for suppression of cytokine-induced VCAM-1 expression: human endothelial cells (FIG. 9)
Experimental: FIG. 9. ApoM/S1P inhibition of endothelial cell VCAM-1 expression. Human umbilical vein endothelial cells (HUVEC) were treated with TNFα for 3 hr. Some cells were co-treated with recombinant (r)ApoM (100 nM) or rApoM/S1P complex (100 nM) or albumin/S1P complex (100 nM) for the same amount of time. The cells were then analyzed for the cell surface expression of Vascular cell adhesion molecule (VCAM)-1 by flow cytometry. Note that ApoM/S1P complex inhibited (˜40%) TNFα-induced VCAM-1 expression.
Inflammation of vascular endothelial cells is a critical initiating event in atherosclerosis, which leads to heart attacks and strokes. Endothelial cell inflammation is induced by cytokines such as TNFα and IL-1β. When endothelial cells are exposed to such cytokines, an inflammatory program of gene expression is induced, resulting in the formation of adhesion molecules such as VCAM-1, which in turn is needed for the recruitment of monocytes into the blood vessel wall. […] Thus, ApoM/S1P complexes can be used to suppress vascular inflammation as a potential treatment for atherosclerosis.

Row | Molecule | adherens junction and F-actin formation (HUVEC [1]) | internalization of GFP-S1P1 receptor (S1P1 receptor) | chemoattractant activity compared with albumin-bound S1P (HUVEC [2]; increasing concentrations (FIG. 4G)) | chemotaxis of HUVEC toward chemoattractant (HUVEC [2]; serum-starved HUVEC, 4 h at 37° C.) | inhibition of TNFα-induced VCAM-1 expression (VCAM-1; 100 nM, co-treated with TNFα for 3 hr) | suppression of cytokine-induced VCAM-1 expression (VCAM-1)
1 | B1 | well-spread, contained F-actin and formed adherens junctions | induced robust internalization | slightly higher activity | worked as chemoattractants in a concentration-dependent manner | ~40% | significant suppression
2 | B2 | not efficiently induced | Neither apoM^−HDL nor r-apoM without S1P caused receptor internalization | – | – | – | not seen
